# In patent publication US20060159616:
# T1: F-S-R-AMC fluorogenic substrate
# T1 chain: FSR
# T2: V-P-R-AMC fluorogenic substrate
# T2 chain: VPR
# B1: recombinant hK13 protein (active form of human kallikrein 13, produced in Pichia pastoris) (protein)
# chain: VLNTNGTSGFLPGGYTCFPHSQPWQAALLVQGRLLCGGVLVHPKWVLTAAHCLKEGLKVYLGKHALGRVEAGEQVREVVHSIPHPEYRRSPTHLNHDHDIMLLELQSPVQLTGYIQTLPLSHNNRLTPGTTCRVSGWGTTTSPQVNYPKTLQCANIQLRSDEECRQVYPGKITDNMLCAGTKEGGKDSCEGDSGGPLVCNRTLYGIVSWGDFPCGQPDRPGVYTRVSRYVLWIRETIRKYETQQQKWLKGPQ
# Experiments:
# [1] = molecular target: T1, F-S-R-AMC fluorogenic substrate
# [2] = molecular target: T2, V-P-R-AMC fluorogenic substrate
protein,measurement,setting,value
B1,"fluorescence of the substrate FSR-AMC, 10 ng of hK13 (substrate alone 1.1 arbitrary units)",[1],to 1.9 arbitrary units (10 ng of hK13)
same,"fluorescence of the substrate FSR-AMC, 100 ng of hK13 (substrate alone 1.1 arbitrary units)",[1],to 6.9 arbitrary units (100 ng of hK13)
same,"fluorescence of the substrate FSR-AMC, 160 ng of hK13 (substrate alone 1.1 arbitrary units)",[1],to 14.5 arbitrary units (160 ng of hK13)
same,"fluorescence of the substrate VPR-AMC, 10 ng of enzyme (substrate alone 0.5 arbitrary units)",[2],to 1.9 arbitrary units (10 ng of enzyme)
same,"fluorescence of the substrate VPR-AMC, 100 ng of enzyme (substrate alone 0.5 arbitrary units)",[2],to 13.9 arbitrary units (100 ng of enzyme)
same,"fluorescence of the substrate VPR-AMC, 160 ng of enzyme (substrate alone 0.5 arbitrary units)",[2],to 35.5 arbitrary units (160 ng of enzyme)
